± gives the standard deviation of the averaged measurements.
System: ATP
Assay: switch fluorescence ratio, 500 uM ATP over buffer (Cy3 cluster intensity, sum of 5 cycles each) (fold (ratio)); higher = stronger signal-on switching upon ATP binding; sequences stand for … in TCGTCGGCAGCGTCAGATGTGTATAAGAGACAGTTTTTTTTTTTTTTTTTTTTTTTTT…TC
Details: aptamer strand: ATP DNA aptamer (quencher-CACCTGGGGGAGTATTGCGGAGGAAGG + anchor), 100 nM annealed; ATP concentration: 500 uM
How it was run: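 Five buffer/ATP imaging cycles were run on Cy3-labelled switching-strand clusters on a modified Illumina MiSeq flow-cell, with NaOH stripping and re-annealing between cycles. In each cycle, clusters annealed to 100 nM quencher-labelled ATP aptamer were imaged in selection buffer, then after 15 min with 500 uM ATP at 22 °C. Per cluster, the fluorescence ratio is summed target-cycle over summed buffer-cycle Cy3 intensity, averaged per switch-domain sequence. Only clusters within 100-1000 RFU were kept.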
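Note: ATP exposure 15 min at 22 °C before imaging.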

| Sequence | switch fluorescence ratio |
| --- | --- |
| TATAGGTGTT | 1.05 ± 0.028 |
| ATTAGTGGCA | 0.982 ± 0.013 |
| TTTAGACAAT | 1.02 ± 0.022 |
| ATCAAGTCTT | 0.99 ± 0.016 |
| TCGAGATTAT | 1.01 ± 0.027 |
| TGGGGTTCTT | 0.993 ± 0.034 |
| TCTGCTTCAG | 0.973 ± 0.022 |
| CATGCTGGGT | 1.0358 ± 0.001 |
| GGTCGTTTTG | 0.991 ± 0.025 |
| TTTCCGTTAT | 2.41 ± 1.9 |
| AAAGTCAAGG | 0.9933 ± 0.0029 |
| TTCCTGGGGA | 0.9943 ± 0.0077 |
| ATCATACCGG | 1 ± 0.035 |
| ATGGTTTTGC | 0.977 ± 0.029 |
| CAAGAATGTA | 0.973 ± 0.024 |
| GCTTGTTTTT | 0.997 ± 0.018 |
| TTTTCACTTC | 1.03 ± 0.069 |
| AATAACTAGG | 1 ± 0.025 |
| GGGATCCTCC | 1.027 ± 0.006 |
| CTCGGATAGC | 1.02 ± 0.045 |
| AGTTACAGTC | 1.05 ± 0.073 |
| TAGTTATTTG | 0.993 ± 0.044 |

| Sequence | switch fluorescence ratio |
| --- | --- |
| GAAAGATACC | 1.03 ± 0.043 |
| AAAAAAGAAT | 0.9938 ± 0.0096 |
| ATAATTCGGT | 0.985 ± 0.025 |
| CGAGCATTGA | 1.12 ± 0.012 |
| ATCTGTATGT | 0.968 ± 0.017 |
| GATGGCTACG | 1.01 ± 0.024 |
| TTTTTCAGCT | 1.02 ± 0.012 |
| TTATGAGTCG | 0.979 ± 0.032 |
| TTTTTTTTG | 0.987 ± 0.019 |
| TTTGATAAAA | 0.972 ± 0.039 |
| AGCGATTTAT | 1.03 ± 0.0079 |
| ATTGGGGCGG | 0.9842 ± 0.0054 |
| TATTAGGTGG | 1.1 ± 0.059 |
| GAGTTGAGAT | 0.9871 ± 0.007 |
| GTTCTTGCGG | 0.959 ± 0.022 |
| CGGTAGAGGT | 1.01 ± 0.016 |
| TTTGCGAGGT | 0.972 ± 0.026 |
| TGCTATATGT | 0.993 ± 0.013 |
| CGACCAGATA | 1.078 ± 0.0037 |
| GTTTGTGTCC | 0.965 ± 0.079 |
| TCGATGTTGT | 0.987 ± 0.03 |
